{
  "source": "patent US20260231954A1",
  "about": "“PESTICIDAL ENZYMES FOR USE ON NEMATODES, INSECTS, AND MOLLUSKS” (priority 2023, published 2026)",
  "assay_type_in_all_cases": "in vivo",
  "key": {"[1]": {"tested_on": "corn", "assay": "Field trial: esterase on MAP/DAP fertilizer, corn yield", "conditions": "2 fl oz/A EstA fermentation on MAP/DAP (72 lb/A Phosphate); base control 12798", "description": "Esterase A (EstA) from Bacillus subtilis (SEQ ID NO:254) was produced via fermentation of a recombinantly produced enzyme in Bacillus subtilis. 2 fl oz of fermentation product was applied onto either 72 lb P/A (phosphate equivalent per acre) monoammonium phosphate (MAP) fertilizer or diammonium phosphate (DAP) fertilizer in a concrete mixer, and allowed to mix for 1 minute. A MAP/DAP control treatment without fermentation media was also created. MAP or DAP, alone or with fermentation media was distributed across 4 small replicated plots each prior to planting of corn with 5 replicates of 400 ft2 each at each site (4 site with MAP, 4 sites with DAP, combined in data in Table 52 below)."}, "[2]": {"tested_on": "winter wheat", "assay": "Field trial: esterase on MAP fertilizer, winter wheat yield and vigor", "conditions": "1 fl oz/A EstA fermentation on MAP (15 lb/A Phosphate); MAP base control 4124.5", "description": "(§1) Esterase A (EstA) from Bacillus subtilis (SEQ ID NO:254) was produced via fermentation of a recombinantly produced enzyme in Bacillus subtilis. 1 fl oz of fermentation product was applied onto 15 lb P/A (phosphate equivalent per acre) monoammonium phosphate (MAP) fertilizer in a concrete mixer and allowed to mix for 1 minute. A MAP control treatment without fermentation media was also created. MAP, alone or with fermentation media was distributed across 4 small replicated plots prior to planting of winter wheat with 5 replicates of 300 ft^2 each at each site."}, "[3]": {"tested_on": "corn", "assay": "Field trial: esterase on DAP fertilizer, corn yield", "conditions": "1, 2, or 3 fl oz fermentation product on 67.5 lb P/A DAP", "description": "(§2) Esterase A (EstA) from Bacillus subtilis (SEQ ID NO:254) was produced via fermentation of a recombinantly produced enzyme in Bacillus subtilis. 1, 2, or 3 fl oz of fermentation product was applied onto 67.5 lb P/A (phosphate equivalent per acre) diammonium phosphate (DAP) fertilizer in a concrete mixer, and allowed to mix for 1 minute. A DAP control treatment without fermentation media was also created. DAP, alone or with fermentation media was distributed across 4 small replicated plots each prior to planting of corn with 4 replicates of 400 ft^2 each at each site."}, "[4]": {"tested_on": "corn", "assay": "Field trial: esterase on urea with or without NBPT nitrogen stabilizer, corn yield", "conditions": "1, 2, or 3 fl oz fermentation product on 135 lb N/A urea, with or without 64 fl oz/ton NBPT", "description": "as §2, with “135” for “67.5”, “N/A (nitrogen” for “P/A (phosphate”, “urea” for “diammonium phosphate (DAP)”, “urea” for “DAP”, “An addition treatment that contained 64 fl oz/ton N-Butyl-thiophosphoric triamide (NBPT) nitrogen stabilizer or 64 fl oz/ton NBPT nitrogen stabilizer with 3 fl oz/A EstA fermentation product was also included in the trial. Urea,” for “DAP,”, “ft2” for “ft^2”"}, "[5]": {"tested_on": "winter wheat", "assay": "Field trial: esterase on urea fertilizer, winter wheat yield", "conditions": "1 fl oz or 2 fl oz fermentation product on 15 lb N/A urea", "description": "as §1, with “oz or 2 fl oz” for “oz”, “N/A (nitrogen” for “P/A (phosphate”, “urea” for “monoammonium phosphate (MAP)”, “urea” for “MAP”, “urea,” for “MAP,”"}, "[6]": {"tested_on": "corn", "assay": "Field trial: EstA Esterase corn seed treatment, yield", "conditions": "2.5 fl oz/unit on hybrid corn seed; 16 sites", "source_text": "2.5 fl oz/unit of EstA Esterase from recombinant Bacillus subtilis fermentation (SEQ ID NO: 254) was coated onto hybrid corn seeds treated with Fludioxinil, Azoxystrobin, mefonoxam, and thiabendaz fungicides, cyantraniliproleinsecticide, peridium 1006 polymer, and (colorant). A control treatment without esterase enzyme was also created. The seed treated with esterase and control seed was planted in replicated trials distributed across 16 replicated plots with 4 replicates of 80 ft2 each at each site."}},
  "data": [
    {"molecule": "EstA fermentation: Esterase A (EstA) from Bacillus subtilis (SEQ ID NO:254), fermentation product of recombinant Bacillus subtilis (protein, listed as Bacillus subtilis) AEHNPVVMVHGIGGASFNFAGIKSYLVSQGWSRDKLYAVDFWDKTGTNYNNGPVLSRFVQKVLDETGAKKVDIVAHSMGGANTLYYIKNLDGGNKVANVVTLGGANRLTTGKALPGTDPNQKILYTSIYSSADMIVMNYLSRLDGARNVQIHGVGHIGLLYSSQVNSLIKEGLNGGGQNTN", "values": [
      {"measurement": "Yield (Kg/ha)", "setting": "[1]", "result": 13077, "unit": "Kg/ha"},
      {"measurement": "Yield (Kg/ha)", "setting": "[2]", "result": 4224.7, "unit": "Kg/ha"},
      {"measurement": "yield vs DAP control (in words)", "setting": "[3]", "result": "increased the yield"},
      {"measurement": "yield vs urea control and NBPT containing treatments (in words)", "setting": "[4]", "result": "increased the yield"},
      {"measurement": "yield vs urea control (in words)", "setting": "[5]", "result": "increased the yield"},
      {"measurement": "yield vs base seed treatment package (in words)", "setting": "[6]", "result": "increased the yield"}
    ]}
  ]
}
